For test [1], the target named is T1, recombinant integrin α4β1 (R&D Systems, 5397-A3-050 [sic]) (UniProt P13612 34-970; P05556 21-728).
T1 construct: coated on the ELISA plate at 0.5 µg/ml; the printed catalogue number is the same as for α4β7; also called a4b1; α4β1 integrin
Put plainly: α4β1-VCAM-1 competition ELISA. As for the experimental part:
(§1) The plate was incubated at 4° C. overnight. […] The plate was then incubated for 1 hour at room temperature. The plate was washed three times with wash buffer (50 mM Tris, 100 mM NaCl, 1 mM MnCl₂, 0.05% Tween). To each well, 50 μl of compound diluted in assay buffer was added by transfer from a compound serial dilution plate. […] The plate was incubated at room temperature with shaking (300 rpm) for 2 hours to reach binding equilibrium. Then the plate was washed three times in wash buffer and 100 μl anti-human IgG Fc specific-HRP (Abcam, Ab97225) diluted at 1:2000 in assay buffer was added to each well. The plate was incubated at room temperature for 1 hour under agitation.
A general note: An ELISA detects its analyte on a solid surface through an enzyme-linked reagent.

The target of test [2] is T2, recombinant integrin α4β7 (R&D Systems, 5397-A3-050) (UniProt P13612 34-970; P26010 20-723).
T2 construct: coated on the ELISA plate at 1 µg/ml; also called a4b7; α4β7 integrin
Briefly: α4β7-MAdCAM-1 competition ELISA. As for the experimental part:
as §1
T2 sequence (P13612 34-970, chain 1 of 2): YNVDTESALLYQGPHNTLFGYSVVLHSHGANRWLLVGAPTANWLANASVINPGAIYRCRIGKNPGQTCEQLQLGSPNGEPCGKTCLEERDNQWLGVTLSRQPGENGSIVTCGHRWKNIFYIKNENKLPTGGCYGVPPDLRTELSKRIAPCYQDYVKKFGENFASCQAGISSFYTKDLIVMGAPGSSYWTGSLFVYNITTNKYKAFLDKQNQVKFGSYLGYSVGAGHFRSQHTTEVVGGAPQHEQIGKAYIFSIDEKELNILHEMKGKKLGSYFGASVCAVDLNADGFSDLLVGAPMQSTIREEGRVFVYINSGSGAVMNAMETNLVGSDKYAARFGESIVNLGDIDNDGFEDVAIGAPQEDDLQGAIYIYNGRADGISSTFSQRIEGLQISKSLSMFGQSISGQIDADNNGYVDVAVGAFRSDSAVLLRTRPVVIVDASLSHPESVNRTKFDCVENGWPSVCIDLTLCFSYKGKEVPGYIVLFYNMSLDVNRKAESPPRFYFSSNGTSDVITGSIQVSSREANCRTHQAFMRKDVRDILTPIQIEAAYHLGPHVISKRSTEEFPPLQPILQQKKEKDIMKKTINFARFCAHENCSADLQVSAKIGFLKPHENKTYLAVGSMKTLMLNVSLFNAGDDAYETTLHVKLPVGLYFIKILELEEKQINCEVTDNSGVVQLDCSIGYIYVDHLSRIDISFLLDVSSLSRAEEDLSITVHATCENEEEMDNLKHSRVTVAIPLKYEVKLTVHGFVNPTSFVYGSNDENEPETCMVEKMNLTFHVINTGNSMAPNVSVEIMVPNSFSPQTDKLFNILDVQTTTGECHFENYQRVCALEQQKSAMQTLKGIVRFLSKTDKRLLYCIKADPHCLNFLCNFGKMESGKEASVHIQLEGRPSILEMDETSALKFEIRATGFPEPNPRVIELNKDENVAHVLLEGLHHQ
T2 sequence (P26010 20-723, chain 2 of 2): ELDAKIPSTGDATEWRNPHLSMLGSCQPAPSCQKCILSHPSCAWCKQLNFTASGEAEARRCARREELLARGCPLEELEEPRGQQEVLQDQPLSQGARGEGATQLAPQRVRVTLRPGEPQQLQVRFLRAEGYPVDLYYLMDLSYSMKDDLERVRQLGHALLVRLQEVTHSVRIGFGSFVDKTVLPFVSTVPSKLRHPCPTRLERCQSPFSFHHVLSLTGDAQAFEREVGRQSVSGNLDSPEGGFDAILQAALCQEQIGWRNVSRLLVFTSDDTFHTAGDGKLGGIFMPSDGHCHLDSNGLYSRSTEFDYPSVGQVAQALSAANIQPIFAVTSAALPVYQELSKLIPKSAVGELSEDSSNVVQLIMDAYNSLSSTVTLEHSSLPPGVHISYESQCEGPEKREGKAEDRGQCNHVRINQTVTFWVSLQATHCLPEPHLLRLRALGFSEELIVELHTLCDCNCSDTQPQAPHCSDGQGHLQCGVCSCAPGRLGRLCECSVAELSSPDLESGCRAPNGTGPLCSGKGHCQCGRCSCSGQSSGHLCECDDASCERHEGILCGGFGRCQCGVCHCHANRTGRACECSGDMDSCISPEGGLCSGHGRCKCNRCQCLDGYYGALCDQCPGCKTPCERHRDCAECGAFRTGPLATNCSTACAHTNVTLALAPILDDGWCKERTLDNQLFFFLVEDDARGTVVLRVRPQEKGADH

The target of test [3] is T1, recombinant integrin α4β1 (R&D Systems, …). Briefly: ratio of ELISA IC50s, α4β1 over α4β7. As for the experimental part:
as §1
(§2) The plate was incubated at 4° C. overnight. […] The plate was then incubated for 1 hour at room temperature. The plate was washed three times with wash buffer (50 mM Tris, 100 mM NaCl, 1 mM MnCl₂, 0.05% Tween). To each well, 50 μl of compound diluted in assay buffer was added by transfer from a compound serial dilution plate. […] The plate was incubated at room temperature with shaking (300 rpm) for 2 hours to reach binding equilibrium.

Test [4] addresses T3, recombinant integrin α4β1 (R&D Systems, 5397-A3-050) (UniProt P13612 34-970; P05556 21-728).
T3 construct: bought; coated on the ELISA plate; also called a4b1; α4β1 integrin
Briefly: competition ELISA, VCAM-Fc on coated α4β1. As for the experimental part:
as §1

The target of test [5] is T3, recombinant integrin α4β1 (R&D Systems, …). Put plainly: IC50 on α4β1 / IC50 on α4β7. As for the experimental part: as §1, §2
The target in test [6] is T4, recombinant integrin α4β7 (R&D Systems, 5397-A3-050) (UniProt P13612 34-970; P26010 20-723).
T4 construct: bought; coated on the ELISA plate; also called a4b7; α4β7 integrin
Put plainly: competition ELISA, MAdCAM-Fc on coated α4β7. As for the experimental part: as §1
T4 sequence (P13612 34-970, chain 1 of 2): as the sequence (P13612 34-970, chain 1 of 2) above
T4 sequence (P26010 20-723, chain 2 of 2): as the sequence (P26010 20-723, chain 2 of 2) above

The target in test [7] is integrin α4β7 on RPMI8866 human cells (human, UniProt P13612 34-1032; P26010 20-798). Put plainly: cell-based or functional assay.
The target in test [8] is T5, integrin α4β1 on human cells (human, UniProt P13612 34-1032; P05556 21-798).
T5 construct: whole, on cells; also called a4b1
Briefly: VCAM-1 competition, FACS on α4β7-negative Th memory cells, human whole blood.

The target in test [9] is T6, integrin α4β7 on human cells (human, UniProt P13612 34-1032; P26010 20-798). Briefly: cell-based or functional assay.
For test [10], the target named is T6, integrin α4β7 on human cells. Put plainly: competition with a saturating amount of MAdCAM, flow cytometry on α4β7+ Th memory cells in human whole blood.
Description: Cells were washed with 1 mL stain buffer-FBS (BD Biosciences) and resuspended in 100 μl stain Buffer-FBS (BD Biosciences) containing 4 mM MnCl₂. […] Cells were then washed with 1 mL stain buffer-FBS and resuspended in 100 μl stain buffer-FBS. The cells were incubated in the dark for 30 minutes at room temperature with 1 ul Streptavidin APC (Biolegend 0.2 mg/ml) and a panel of antibodies for the detection of memory T helper a4b7-positive cells subset. And amount of 5.0 ul each of the following antibodies were used; CD45 FITC (BioLegend 200 ug/ml), CD29 APC Cy7 (BioLegend 100 ug/ml), Integrin beta7 PE, (BioLegend concentration 50 μg/mL), CD49d V421 (BioLegend 50 μg/mL), CD3 V510 (BioLegend 30 μg/mL), CD4 PECy7 (BioLegend 100 μg/mL), CD45RO PerCP, BioLegend 200 μg/mL). The cells were then washed with stain-buffer-FBS and resuspended in 150 microL stain buffer-FBS for acquisition on the flow cytometer (BD FACSCanto™ flow cytometer and BDFACSDiva™ software). FACS data was acquire by electronic gating on the basis of forward versus side scatter, The cytometer was set to collect 20,000 events in each tube. Cell population were determined using the following markers, CD45+, CD3+, CD4+, CD45RO+, CD49d+, integrin b7, biotinylated ligands.

*1 amine or outer side, *2 acyl side, *3 side chain or, on linkers, in order; H or OH if unused. Bridges are numbered along the chain shown (N, C = ends). Where no end group is shown, it is not given here. [ ]: non-standard residue; d: D form. formula (I) linker = non-peptide linker -N(R1)-C(R2)(R3)-C(R4)(R5)- (R1 H, R2 H, R3 CH3, R4 H, R5 C(O)NH-tBu), its N is acylated by the C-terminal carbonyl and its C(R4)(R5) carbon is bonded to the N-terminal N; X3 = 3‑aminomethyl‑4‑(4-(1-piperazinyl)phenyl)benzoic acid, O=C(c1ccc(-c2ccc(N3CCN([*:3])CC3)cc2)c(CN[*:1])c1)[*:2]; Thr(OMe) = O-methyl-threonine, CO[C@H](C)[C@H](N[*:1])C(=O)[*:2]; dPhe(4-CH2NH2) = NCc1ccc(C[C@@H](N)C(=O)O)cc1; Phe(4-CH2NH2) = NCc1ccc(C[C@H](N)C(=O)O)cc1; Hyp = O=C(O)[C@@H]1C[C@@H](O)CN1; d(β3hK) = NCCCC[C@@H](N)CC(=O)O; β3hK = NCCCC[C@H](N)CC(=O)O

T1 sequence (P13612 34-970, chain 1 of 2): as the sequence (P13612 34-970, chain 1 of 2) above
T1 sequence (P05556 21-728, chain 2 of 2): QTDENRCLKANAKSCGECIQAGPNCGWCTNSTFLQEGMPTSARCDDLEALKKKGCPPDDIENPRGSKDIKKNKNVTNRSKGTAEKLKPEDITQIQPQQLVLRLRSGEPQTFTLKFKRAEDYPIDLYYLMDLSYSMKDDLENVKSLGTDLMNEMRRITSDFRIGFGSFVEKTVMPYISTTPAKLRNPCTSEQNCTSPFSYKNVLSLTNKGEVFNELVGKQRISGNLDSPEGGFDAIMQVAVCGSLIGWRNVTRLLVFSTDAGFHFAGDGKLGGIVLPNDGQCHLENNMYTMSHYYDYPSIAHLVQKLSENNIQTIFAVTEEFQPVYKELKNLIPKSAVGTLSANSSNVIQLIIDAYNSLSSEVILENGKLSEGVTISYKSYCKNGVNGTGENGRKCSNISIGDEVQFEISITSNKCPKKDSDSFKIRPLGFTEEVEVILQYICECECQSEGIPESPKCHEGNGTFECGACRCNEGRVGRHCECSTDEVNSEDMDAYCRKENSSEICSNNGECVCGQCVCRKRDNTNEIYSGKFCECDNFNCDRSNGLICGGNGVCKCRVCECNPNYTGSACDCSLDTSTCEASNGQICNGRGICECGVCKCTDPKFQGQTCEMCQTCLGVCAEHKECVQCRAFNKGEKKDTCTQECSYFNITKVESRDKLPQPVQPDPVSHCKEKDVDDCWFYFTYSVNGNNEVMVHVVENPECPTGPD
T6 sequence (P13612 34-1032, chain 1 of 2): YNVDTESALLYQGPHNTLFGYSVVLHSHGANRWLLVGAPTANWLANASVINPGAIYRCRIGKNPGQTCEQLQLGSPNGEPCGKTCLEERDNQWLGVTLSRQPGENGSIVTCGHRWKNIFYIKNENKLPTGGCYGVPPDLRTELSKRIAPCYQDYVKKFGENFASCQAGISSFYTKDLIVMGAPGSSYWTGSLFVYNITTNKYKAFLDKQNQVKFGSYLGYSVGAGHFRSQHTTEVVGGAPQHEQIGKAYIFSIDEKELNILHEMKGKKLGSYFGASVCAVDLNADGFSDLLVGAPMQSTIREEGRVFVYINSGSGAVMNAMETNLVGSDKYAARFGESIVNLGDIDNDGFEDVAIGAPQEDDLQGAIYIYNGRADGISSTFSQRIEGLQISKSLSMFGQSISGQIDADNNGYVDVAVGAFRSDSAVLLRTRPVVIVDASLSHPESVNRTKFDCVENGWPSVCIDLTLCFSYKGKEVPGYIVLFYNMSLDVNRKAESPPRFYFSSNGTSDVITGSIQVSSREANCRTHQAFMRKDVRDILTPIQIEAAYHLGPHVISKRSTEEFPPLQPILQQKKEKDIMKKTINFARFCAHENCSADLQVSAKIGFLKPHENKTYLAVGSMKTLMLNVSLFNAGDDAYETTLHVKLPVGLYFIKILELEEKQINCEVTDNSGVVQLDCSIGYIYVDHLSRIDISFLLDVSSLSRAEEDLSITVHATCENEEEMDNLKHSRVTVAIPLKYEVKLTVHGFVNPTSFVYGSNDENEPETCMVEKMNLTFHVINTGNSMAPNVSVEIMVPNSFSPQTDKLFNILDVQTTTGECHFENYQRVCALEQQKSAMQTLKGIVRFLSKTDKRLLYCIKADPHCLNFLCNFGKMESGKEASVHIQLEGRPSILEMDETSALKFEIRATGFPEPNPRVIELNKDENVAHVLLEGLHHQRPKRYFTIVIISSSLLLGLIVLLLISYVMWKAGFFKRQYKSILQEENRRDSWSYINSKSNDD
T6 sequence (P26010 20-798, chain 2 of 2): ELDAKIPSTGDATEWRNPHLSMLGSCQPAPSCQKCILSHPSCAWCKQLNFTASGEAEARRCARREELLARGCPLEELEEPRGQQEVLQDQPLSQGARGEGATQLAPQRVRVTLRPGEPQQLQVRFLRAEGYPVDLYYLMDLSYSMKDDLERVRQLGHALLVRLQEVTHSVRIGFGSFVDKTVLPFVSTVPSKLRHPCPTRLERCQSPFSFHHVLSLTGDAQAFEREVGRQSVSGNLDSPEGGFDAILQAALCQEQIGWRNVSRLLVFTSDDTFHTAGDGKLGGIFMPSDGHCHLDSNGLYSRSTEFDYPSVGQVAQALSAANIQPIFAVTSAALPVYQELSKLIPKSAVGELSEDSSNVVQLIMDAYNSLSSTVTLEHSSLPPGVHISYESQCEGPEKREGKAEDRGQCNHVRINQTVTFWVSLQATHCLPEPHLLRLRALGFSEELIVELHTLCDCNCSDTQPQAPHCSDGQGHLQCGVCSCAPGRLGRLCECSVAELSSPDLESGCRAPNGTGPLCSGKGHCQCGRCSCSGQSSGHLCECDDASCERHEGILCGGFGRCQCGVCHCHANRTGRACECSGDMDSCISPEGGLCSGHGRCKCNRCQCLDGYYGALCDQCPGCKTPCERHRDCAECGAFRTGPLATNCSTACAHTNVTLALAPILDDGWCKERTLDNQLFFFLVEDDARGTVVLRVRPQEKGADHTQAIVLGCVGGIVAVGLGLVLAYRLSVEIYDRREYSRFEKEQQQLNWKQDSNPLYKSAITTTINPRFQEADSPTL
T3 sequence (P13612 34-970, chain 1 of 2): as the sequence (P13612 34-970, chain 1 of 2) above
T3 sequence (P05556 21-728, chain 2 of 2): as the sequence (P05556 21-728, chain 2 of 2) above
integrin α4β7 on RPMI8866 human cells, sequence (P13612 34-1032, chain 1 of 2): as the sequence (P13612 34-1032, chain 1 of 2) above
integrin α4β7 on RPMI8866 human cells, sequence (P26010 20-798, chain 2 of 2): as the sequence (P26010 20-798, chain 2 of 2) above

In general, IC50 refers to the midpoint of a concentration-inhibition curve. Consider P[Phe(4-CH2NH2)][β3hK]LDI (bridge N-C; not fully specified (bridges); printed as Pro X1 X2 Leu Asp Ile, macrocycle of formula (I)) [Compound No. 215], for which the half-inhibitory concentration (IC50) in [1] came out at 413 nM; in test [2], 33 nM.

B1: Compound No. 253 (peptide)
peptide: cyclo(P[dPhe(4-CH2NH2)][β3hK]LDI)
modifications: also: macrocycle closed by non-peptide linker -NH-CH(CH3)-CH(C(O)NH-tBu)- between Pro1 N and C-terminal C
notes: macrocycle of formula (I)
In the case of B1, the IC50 in [1] was 1090 nM; in test [2], 69 nM.

B2: Compound No. 254 (peptide)
peptide: cyclo(P[Phe(4-CH2NH2)][β3hK]LDV)
modifications: also: macrocycle closed by non-peptide linker -NH-CH(CH3)-CH(C(O)NH-tBu)- between Pro1 N and C-terminal C
notes: macrocycle of formula (I)
As to B2, the IC50 in test [1] came out at 1800 nM; in [2], 55 nM. Further, the “ELISA Assay Ratio b1/b7” value in [3] was found to be 33.
As for PXGLDT (X^y (4-aminomethyl-Phe), macrocycle of formula (I)) [Compound No. 165], in test [1], the IC50 was determined as 2920 nM.
Same read-out and setting: the result for PXSLDT (X^y Tyr(OAllyl); X^z dSer, macrocycle of formula (I)) [Compound No. 167] reads 2000 nM; that for PXVLDT (X^y Tyr(OAllyl); X^z dVal, macrocycle of formula (I)) [Compound No. 166], 1380 nM.
As to PYXXDT (X^z dPip; X^1 tertbutylAla, macrocycle of formula (I)) [Compound No. 150], the half-inhibitory concentration (IC50) in [1] is 447 nM; in [2], 54 nM. The “ELISA Assay Ratio b1/b7” value in test [3] was determined as 8.2.

B3: Compound No. 40 (peptide)
peptide: PFLD[Thr(OMe)]
modifications: bridge N-C; not fully specified (bridges); printed as Pro Phe Leu Asp X
notes: macrocycle of formula (I); R1 H, R2 H, R3 CH3, R4 H, R5 C(O)-NH-tert-Butyl
B3: the IC50 in test [4] is 119 nM; in test [6], 63 nM. In addition, in test [5], the “ELISA Assay Ratio b1/b7” value is 1.9.
With [Hyp]FLDT (linker N-C via formula (I) linker) [Compound No. 32], the “RPMI8866 Adhesion a4b7/MAdCAM IC50” value in test [7] was 11200 nM.
On to PF[d(β3hK)]LDI (bridge N-C; not fully specified (bridges); printed as Pro Phe X Leu Asp Ile, macrocycle of formula (I)) [Compound No. 220], for which the values for the IC50 in test [1] and in test [2] were 1740 nM and 96 nM, respectively. Besides, the “ELISA Assay Ratio b1/b7” value in [3] was found to be 18.2.

B4: Compound No. 231 (peptide)
peptide: PR[β3hK]LDT
modifications: bridge N-C; not fully specified (bridges); also: macrocycle closed by non-peptide linker -NH-CH(CH3)-CH(C(O)NH-tBu)- between Pro1 N and C-terminal C
notes: macrocycle of formula (I)
For B4, the IC50 in test [1] is 993 nM.

B5: Compound No. 517 (peptide)
peptide: P[X3]LDT
modifications: bridge (positions not given here); not fully specified (residue 2, bridges); also: homodimer: diphenic acid diamide on piperazine N of X2 joins two copies
notes: also called ET3764; ET03764
For orientation: EC50 means the midpoint of the concentration-response curve. Read a high EC50 as weaker potency. The molecule B5 yielded an IC50 in test [8] of 600 nM. The “IC50 in the RPM18866 cell adhesion assay” value in test [9] is 9.9 nM. A half-maximal effect in [10] (EC50) was put at 38 nM.
